Measurements: US20230059836A1 (NANJING LEGEND BIOTECH, published 2023)

B1: BCP-73 (bispecific antibody)
chain 1: not shown
chain 2: EIVLTQSPATLSLSPGERATLSCRASKGVSTSGYSYLHWYQQKPGQAPRLLIYLASYLESGVPARFSGSGSGTDFTLTISSLEPEDFAVYYCQHSRDLPLTFGGGTKVEIKRTVAAPSVFIFPPSDEQLKSGTASVVCLLNNFYPREAKVQWKVDNALQSGNSQESVTEQDSKDSTYSLSSTLTLSKADYEKHKVYACEVTHQGLSSPVTKSFNRGEC
B2: BCP-75 (bispecific antibody)
chain 1: not shown
chain 2: B1 chain 2
B3: BCP-74 (bispecific antibody)
chain 1: not shown
chain 2: B1 chain 2
B4: BCP-78 (bispecific antibody)
chain 1: EVQLVESGGGVVQPGRSLRLSCAASGRTITTITMGWFRQAPGKGREFVASHSWTDNNPYYADSVKGRFTISRDNAKNTLYLQMNSLRPEDTAVYYCAATARRSFVGRQWYTEARQYDYWGQGTLVTVSSEPKSSDKTHTSPPSPQVQLVESGGGVVQPGRSLRLDCKASGITFSNSGMHWVRQAPGKGLEWVAVIWYDGSKRYYADSVKGRFTISRDNSKNTLFLQMNSLRAEDTAVYYCATNDDYWGQGTLVTVSSASTKGPSVFPLAPCSRSTSESTAALGCLVKDYFPEPVTVSWNSGALTSGVHTFPAVLQSSGLYSLSSVVTVPSSSLGTKTYTCNVDHKPSNTKVDKRVESKYGPPCPPCPAPEFLGGPSVFLFPPKPKDTLMISRTPEVTCVVVDVSQEDPEVQFNWYVDGVEVHNAKTKPREEQFNSTYRVVSVLTVLHQDWLNGKEYKCKVSNKGLPSSIEKTISKAKGQPREPQVYTLPPSQEEMTKNQVSLTCLVKGFYPSDIAVEWESNGQPENNYKTTPPVLDSDGSFFLYSRLVDKSRWQEGNVFSCSVMHEALHNHYTQKSLSLSLGK
chain 2: not shown

Columns and labels:
[1] = biological target: human PD-1 expressed on CHO cells (human, UniProt Q15116 25-288); assay: cell-based or functional assay
Sequence of human PD-1 expressed on CHO cells (Q15116 25-288): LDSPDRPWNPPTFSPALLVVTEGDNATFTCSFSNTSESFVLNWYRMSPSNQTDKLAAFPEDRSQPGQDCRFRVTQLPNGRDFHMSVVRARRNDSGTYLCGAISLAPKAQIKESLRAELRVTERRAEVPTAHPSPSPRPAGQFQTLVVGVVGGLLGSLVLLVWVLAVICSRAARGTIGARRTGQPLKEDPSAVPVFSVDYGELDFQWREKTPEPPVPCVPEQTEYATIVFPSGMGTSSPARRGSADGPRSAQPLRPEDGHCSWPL

[2] = biological target: CTLA-4-Fc (GenScript, Z03373-50) (UniProt P16410 36-161); assay: cell-based or functional assay
Sequence of CTLA-4-Fc (GenScript, Z03373-50) (P16410 36-161 limits assumed, one chain of several): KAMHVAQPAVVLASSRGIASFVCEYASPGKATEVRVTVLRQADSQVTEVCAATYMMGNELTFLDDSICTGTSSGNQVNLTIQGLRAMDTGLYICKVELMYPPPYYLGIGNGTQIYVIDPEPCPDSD

Binder | EC50 (nM), NFAT luciferase, PD-1/NFAT Reporter-Jurkat cells with CHO-K1 expressing human PD-L1 and TCR activator [1] | EC50 (nM), IL-2 secretion, CD4+ T cells with CHO-K1/human CD80 and CTLA-4-Fc [2]
B1 | 1.6 nM | 12.1 nM
B2 | 5.5 nM | 12.1 nM
B3 | 4.3 nM | 14.3 nM
B4 | 8.9 nM | 8.4 nM
